Here are results for 5 molecules from doi:10.1101/2024.12.23.630205 (bioRxiv, 2024).

To fix the notation:
B1: N-terminal hTULP3 (1-148 aa, construct-1), GST tag removed (domain or fragment, human, UniProt O75386 1-148, looked up)
chain: MEASRCRLSPSGDSVFHEEMMKMRQAKLDYQRLLLEKRQRKKRLEPFMVQPNPEARLRRAKPRASDEQTPLVNCHTPHSNVILHGIDGPAAVLKPDEVHAPSVSSSVVEEDAENTVDTASKPGLQERLQKHDISESVNFDEETDGISQ
B2: GST-tagged N-terminal hTULP3 (1-148 aa, construct-1) (domain or fragment, human, UniProt O75386 1-148, looked up)
chain: B1 chain
B3: GST-TULP3 (60-442 aa, construct-2) (domain or fragment, human, UniProt O75386 60-442, looked up)
chain: AKPRASDEQTPLVNCHTPHSNVILHGIDGPAAVLKPDEVHAPSVSSSVVEEDAENTVDTASKPGLQERLQKHDISESVNFDEETDGISQSACLERPNSASSQNSTDTGTSGSATAAQPADNLLGDIDDLEDFVYSPAPQGVTVRCRIIRDKRGMDRGLFPTYYMYLEKEENQKIFLLAARKRKKSKTANYLISIDPVDLSREGESYVGKLRSNLMGTKFTVYDRGICPMKGRGLVGAAHTRQELAAISYETNVLGFKGPRKMSVIIPGMTLNHKQIPYQPQNNHDSLLSRWQNRTMENLVELHNKAPVWNSDTQSYVLNFRGRVTQASVKNFQIVHKNDPDYIVMQFGRVADDVFTLDYNYPLCAVQAFGIGLSSFDSKLACE
B4: deleted hTULP3 (60-442 aa, construct-2), GST tag removed (domain or fragment, human, UniProt O75386 60-442, looked up)
chain: B3 chain
B5: hSIRT2 (36-356 aa), purified, thrombin-digested (domain or fragment, human, UniProt Q8IXJ6 36-356, looked up)
chain: ADMDFLRNLFSQTLSLGSQKERLLDELTLEGVARYMQSERCRRVICLVGAGISTSAGIPDFRSPSTGLYDNLEKYHLPYPEAIFEISYFKKHPEPFFALAKELYPGQFKPTICHYFMRLLKDKGLLLRCYTQNIDTLERIAGLEQEDLVEAHGTFYTSHCVSASCRHEYPLSWMKEKIFSEVTPKCEDCQSLVKPDIVFFGESLPARFFSCMQSDFLKVDLLLVMGTSLQVQPFASLISKAPLSTPRLLINKEKAGQSDPFLGMIMGLGGGMDFDSKKAYRDVAWLGECDQGCLALAELLGWKKELEDLVRREHASIDAQS

Data set [1] addresses T1, hSIRT1 (114-510 aa), purified, thrombin-digested (human, UniProt Q96EB6 114-510, NT-647 fluorescent dye (in the MST only)).
T1 sequence (looked up): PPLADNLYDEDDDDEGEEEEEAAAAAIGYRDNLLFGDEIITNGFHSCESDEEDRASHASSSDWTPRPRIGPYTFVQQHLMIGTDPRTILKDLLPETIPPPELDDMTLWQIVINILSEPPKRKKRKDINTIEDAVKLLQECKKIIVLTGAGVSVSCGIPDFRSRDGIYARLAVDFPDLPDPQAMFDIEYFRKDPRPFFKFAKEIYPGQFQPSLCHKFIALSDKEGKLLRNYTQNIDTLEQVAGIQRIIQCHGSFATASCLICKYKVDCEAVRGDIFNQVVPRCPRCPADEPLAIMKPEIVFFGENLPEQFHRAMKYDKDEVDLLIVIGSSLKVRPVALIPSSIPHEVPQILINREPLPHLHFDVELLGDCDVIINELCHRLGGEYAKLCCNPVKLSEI
Description: MST.

The data set “SEC” concerns the molecule itself. Kind of data set: SEC. (Size exclusion chromatography separates by hydrodynamic size, large species first.)
The target in data set [2] is B5. Description: SPR.
For data set [3], the target named is T1, hSIRT1 (114-510 aa), purified, …. Description: SPR.
The data set “native gel or EMSA” concerns the molecule itself. Description: native gel or EMSA. Background: In EMSA bound probe runs differently from free probe, usually more slowly.
In data set [4] the target is B3. Kind of data set: SPR. A general note: Surface plasmon resonance follows binding to a sensor surface in real time, without labels.

“And” between values parts separate entries of the source, which are not always exact repeats. Identical values can stand only once.

On to B1, for which the Kd (as a rule, the constant that tells how readily two partners part at equilibrium) in data set [1] was 28 µM. In addition, the stoichiometry N (commonly the number of molecules, sites or subunits per partner or assembly) in the data set “SEC” is 2.
B2: in data set [2], the binding result was “binds”.
In turn, B3 yielded a Kd in data set [3] of 8.1 µM.
Consider B4, for which, in the data set “native gel or EMSA”, the “stoichiometry N” value was 2.
Consider B5, for which the Kd in data set [4] is 66.7 µM and 66.5 µM.
